In the series the target is Apolipoprotein A-1 Milano (ApoA-1M).
Sequence of Apolipoprotein A-1 Milano (ApoA-1M) (chain, as listed by the source): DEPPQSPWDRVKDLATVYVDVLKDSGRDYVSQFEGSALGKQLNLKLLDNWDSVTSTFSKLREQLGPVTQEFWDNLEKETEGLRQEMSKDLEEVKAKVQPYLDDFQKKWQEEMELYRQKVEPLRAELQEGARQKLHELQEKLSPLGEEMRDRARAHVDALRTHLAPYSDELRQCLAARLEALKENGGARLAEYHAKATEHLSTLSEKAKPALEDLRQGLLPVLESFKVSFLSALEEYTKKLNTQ

B1: outer membrane protease 3B (Protease 7 precursor, or OmpT) (protein)
chain: STETLSFTPDNINADISLGTLSGKTKERVYLAEEGGRKVSQLDWKFNNAAIIKGAINWDLMPQISIGAAGWTTLGSRGGNMVDQDWMDSSNPGTWTDESRHPDTQLNYANEFDLNIKGWLLNEPNYRLGLMAGYQESRYSFTARGGSYIYSSEEGFRDDIGSFPNGERAIGYKQRFKMPYIGLTGSYRYEDFELGGTFKYSGWVESSDNDEHYDPGKRITYRSKVKDQNYYSVAVNAGYYVTPNAKVYVEGAWNRVTNKKGNTSLYDHNNNTSDYSKNGAGIENYNFITTAGLKYTF
B1: the ApoA-1M K238/K239 truncated species (% total ApoA-1M), Capture pool, ompT+ strain ΔdppAΔoppAΔmalE (% total ApoA-1M) is 1.9; the ApoA-1M K238/K239 truncated species (% total ApoA-1M), DEAE pool, ompT+ strain ΔdppAΔoppAΔmalE (% total ApoA-1M) is 1.3; the ApoA-1M K238/K239 truncated species (% total ApoA-1M), DEAE post-peak pool, ompT+ strain ΔdppAΔoppAΔmalE (% total ApoA-1M) was determined as 7; the ApoA-1M K238/K239 truncated species (% total ApoA-1M), selected DEAE post-peak fraction, ompT+ strain ΔdppAΔoppAΔmalE (% total ApoA-1M) turned out to be 14.2. Moreover, the “K238/K239 truncation of ApoA-1M, ompT+ strain against ΔompT strain” value is reported as “marked (~5- to 20-fold) reduction in the amount of truncated ApoA-1M in the GB004 strain compared with the 3K0 strain”.

The values are drawn from US20130029377.
